Measurements: the supplement of paper PMC9233669
Variants at the floor of the assay were thinned out.

How the values were obtained:
biotinyl-Phe-oxazolone = assay: self-aminoacylation, catalytic enhancement (BFO) (fold over background); higher = more active; k-Seq, kA / k0A0; sequences stand for … in GGGAAUGGAUCCACAUCUACGAAUUC…UUCACUGCAGACUUGACGAAGCUG
In short: (§1)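 Mutagenized RNA pools (0.43 μM; 21-nt variable region) were treated with 2–1250 μM of each biotinyl-aminoacyl-oxazolone. Conditions were 50 μL HEPES/NaCl/KCl/MgCl2/CaCl2 buffer, 5% acetonitrile, pH 6.9–7.0, room temperature, 90 minutes. Catalytic enhancement, the median kA relative to the uncatalyzed rate, was derived from streptavidin capture, qPCR and Illumina sequencing.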

biotinyl-Ile-oxazolone = assay: self-aminoacylation, catalytic enhancement (BIO) (fold over background); higher = more active; k-Seq, kA / k0A0; sequences stand for … in GGGAAUGGAUCCACAUCUACGAAUUC…UUCACUGCAGACUUGACGAAGCUG
In short: as §1

biotinyl-Met-oxazolone = assay: self-aminoacylation, catalytic enhancement (BMO) (fold over background); higher = more active; k-Seq, kA / k0A0; sequences stand for … in GGGAAUGGAUCCACAUCUACGAAUUC…UUCACUGCAGACUUGACGAAGCUG
In short: as §1

biotinyl-Val-oxazolone = assay: self-aminoacylation, catalytic enhancement (BVO) (fold over background); higher = more active; k-Seq, kA / k0A0; sequences stand for … in GGGAAUGGAUCCACAUCUACGAAUUC…UUCACUGCAGACUUGACGAAGCUG
In short: as §1

biotinyl-Leu-oxazolone = assay: self-aminoacylation, catalytic enhancement (BLO) (fold over background); higher = more active; k-Seq, kA / k0A0; sequences stand for … in GGGAAUGGAUCCACAUCUACGAAUUC…UUCACUGCAGACUUGACGAAGCUG
In short: as §1

biotinyl-Trp-oxazolone = assay: self-aminoacylation, catalytic enhancement (BWO) (fold over background); higher = more active; k-Seq, kA / k0A0; sequences stand for … in GGGAAUGGAUCCACAUCUACGAAUUC…UUCACUGCAGACUUGACGAAGCUG
In short: as §1

Row | Sequence | self-aminoacylation (biotinyl-Phe-oxazolone) | self-aminoacylation (biotinyl-Ile-oxazolone) | self-aminoacylation (biotinyl-Met-oxazolone) | self-aminoacylation (biotinyl-Val-oxazolone) | self-aminoacylation (biotinyl-Leu-oxazolone) | self-aminoacylation (biotinyl-Trp-oxazolone)
1 | AUUCACCGAGAUCAUCGGGUG [Fam2.2 aminoacylation ribozyme variant] | 49.8 | 3.88 | 6.77 | 4.27 | 8.53 | 7.09
2 | UCACACUUCAAGCAAUCGCUC [Fam1B.1 aminoacylation ribozyme variant] | 1.94 | 1.43 | 1.46 | 1.32 | 1.3 | 1.45
3 | CUUACCCUGGUCAUUGAGUGA [Fam2.1 aminoacylation ribozyme variant] | 22.8 | 3.9 | 7.17 | 3.81 | 7.58 | 8.86
4 | CCACACUCCAAGCAAUCGGGC [Fam1B.1 aminoacylation ribozyme variant] | 1.07 | 2.01 | 1.31 | 2.08 | 1.65 | 2.55
5 | CUUCUUCAAACAAUCGGUCGG [Fam1A.1 aminoacylation ribozyme variant] | 10.9 | 0.873 | 1.12 | 0.789 | 1.24 | 7.44
6 | AUUACUCUGGUCUUCGAGUGA [Fam2.1 aminoacylation ribozyme variant] | 21.2 | 3.13 | 5.11 | 2.85 | 5.04 | 7.1
7 | CCAGACGUCAAGCAAUCGGUC [Fam1B.1 aminoacylation ribozyme variant] | 0.503 | 1.24 | 1.52 | 1.99 | 1.99 | 0.65
8 | ACUUACCUAGGUCAUCGGGUG [Fam2.2 aminoacylation ribozyme variant] | 48.7 | 7.28 | 10.6 | 5.61 | 10.8 | 10.1
9 | AAGUUUGCUAGUAGUAGCAAG [Fam3.1 aminoacylation ribozyme variant] | 1.62 | 1.24 | 0.808 | 1.18 | 1 | 1.2
10 | AUCACCCUGGUCACCGAGUGA [Fam2.1 aminoacylation ribozyme variant] | 96.6 | 6.34 | 17.5 | 5.92 | 15.4 | 13.2
11 | AAGUUUGCUAAUAGUCGCUAU [Fam3.1 aminoacylation ribozyme variant] | 1.39 | 1.31 | 1.26 | 0.984 | 1.06 | 1.08
12 | AUGUUUGAUAAUAGUCGCAAG [Fam3.1 aminoacylation ribozyme variant] | 1.59 | 1.65 | 1.35 | 1.17 | 1.09 | 1.45
13 | AGUACCCUGGUCAUCGAGUGG [Fam2.1 aminoacylation ribozyme variant] | 6.94 | 2.26 | 5.15 | 2.65 | 4.23 | 4.19
14 | CCACACUUAAAGCAAUCCGUC [Fam1B.1 aminoacylation ribozyme variant] | 0.452 | 0.998 | 0.879 | 1.17 | 0.838 | 0.523
15 | AAGUUUGCUAAUAGUAACAAG [Fam3.1 aminoacylation ribozyme variant] | 1.58 | 1.19 | 1.52 | 1.1 | 1.12 | 1.41
16 | AUUUCCCUGGUCCUCGAGUGA [Fam2.1 aminoacylation ribozyme variant] | 23.5 | 2.08 | 3.79 | 1.93 | 3.67 | 3.91
17 | AAGUUUGCUGAUAGUCACAAG [Fam3.1 aminoacylation ribozyme variant] | 1.23 | 1.15 | 1.2 | 1.28 | 1.08 | 1.62
18 | AAUUUUGCUAGUAGUCGCAAG [Fam3.1 aminoacylation ribozyme variant] | 2.34 | 2.02 | 1.77 | 1.36 | 1.56 | 1.71
19 | AUUACCCUAGUCUUCGAGUGA [Fam2.1 aminoacylation ribozyme variant] | 24.6 | 3.09 | 5.54 | 3.22 | 5 | 7.87
20 | AACUUUGCUAAGAGUCGCAAG [Fam3.1 aminoacylation ribozyme variant] | 12.8 | 2.78 | 3.93 | 2.62 | 4.13 | 5.02
21 | GCACACUUCAAGCAAUCGGGC [Fam1B.1 aminoacylation ribozyme variant] | 13.7 | 3.11 | 2.58 | 3.09 | 3.02 | 4.23

Row | Sequence | self-aminoacylation (biotinyl-Phe-oxazolone) | self-aminoacylation (biotinyl-Ile-oxazolone) | self-aminoacylation (biotinyl-Met-oxazolone) | self-aminoacylation (biotinyl-Val-oxazolone) | self-aminoacylation (biotinyl-Leu-oxazolone) | self-aminoacylation (biotinyl-Trp-oxazolone)
22 | AUUACCCUUGUCAUCGAGUAA [Fam2.1 aminoacylation ribozyme variant] | 0.935 | 1.19 | 1.36 | 1.13 | 1.22 | 1.53
23 | AUUCACCUAGGUCAUCGCGUU [Fam2.2 aminoacylation ribozyme variant] | 12.7 | 2.48 | 2.62 | 2.39 | 3 | 3.66
24 | AAGUCUGCUUAUAGUCGCAAG [Fam3.1 aminoacylation ribozyme variant] | 1.42 | 0.895 | 1.18 | 0.822 | 1.25 | 0.87
25 | GUUCACCUUGGUCAUCGGGUG [Fam2.2 aminoacylation ribozyme variant] | 37.7 | 3.45 | 5.14 | 4.34 | 5.74 | 5.93
26 | AGGUUCGCUAAUAGUCGCAAG [Fam3.1 aminoacylation ribozyme variant] | 12.3 | 2.82 | 2.81 | 2.34 | 3.26 | 4.12
27 | CUUCCCCUGGUCAUCGAGUGA [Fam2.1 aminoacylation ribozyme variant] | 40.1 | 3.23 | 5.92 | 3.42 | 6.32 | 7.51
28 | CCACACCUCAAACAAUCGGUC [Fam1B.1 aminoacylation ribozyme variant] | 7.05 | 1.24 | 1.04 | 1.13 | 1.29 | 4.47
29 | CCACACAUUAAGCAAUCGGUC [Fam1B.1 aminoacylation ribozyme variant] | 1 | 0.966 | 0.709 | 0.867 | 0.667 | 0.62
30 | CCACACUACAAGCGAUCGGUC [Fam1B.1 aminoacylation ribozyme variant] | 0.866 | 1.09 | 0.977 | 1.29 | 1.24 | 1.03
31 | AAUUGUGCUAAUAGUCGCAAG [Fam3.1 aminoacylation ribozyme variant] | 3.05 | 1.93 | 2.02 | 1.75 | 2.18 | 2.44
32 | ACUACCCUGGUCAUCGGGUGA [Fam2.1 aminoacylation ribozyme variant] | 293 | 20.6 | 48 | 20.9 | 50.1 | 57.6
33 | CCACACUUCAAGCAAUCGUUC [Fam1B.1 aminoacylation ribozyme variant] | 1.31 | 0.714 | 0.57 | 0.845 | 0.579 | 0.675
34 | CAGUUUGCUAAUAGUCGCAAG [Fam3.1 aminoacylation ribozyme variant] | 2.94 | 1.36 | 1.28 | 1.21 | 1.35 | 1.55
35 | CUACUUCGAACGAUCGGUCUG [Fam1A.1 aminoacylation ribozyme variant] | 0.279 | 0.846 | 0.779 | 1.04 | 1.06 | 0.707
36 | CCACACUUCAAGCCAUCUGUC [Fam1B.1 aminoacylation ribozyme variant] | 0.711 | 0.493 | 0.542 | 0.72 | 0.401 | 0.498
37 | CCACAAUUCAAGCAUUCGGUC [Fam1B.1 aminoacylation ribozyme variant] | 1.36 | 1.96 | 1.68 | 1.85 | 1.94 | 1.36
38 | AAGUCUGCUAAAAGUCGCAAG [Fam3.1 aminoacylation ribozyme variant] | 23.1 | 1.35 | 1.92 | 1.23 | 1.72 | 6.66
39 | ACACACUUCAACCAAUCGGUC [Fam1B.1 aminoacylation ribozyme variant] | 32.5 | 1.69 | 1.65 | 1.56 | 2.16 | 26.6
40 | AUUCACCCAGGUUAUCGGGUG [Fam2.2 aminoacylation ribozyme variant] | 35.3 | 2.77 | 4.79 | 3.33 | 4.62 | 4.83
41 | AUUACCCUGGUCAUCGGGUCA [Fam2.1 aminoacylation ribozyme variant] | 22.5 | 3.61 | 5.33 | 4.01 | 6.66 | 9.71
42 | CAGUUUGCUAGUAGUCGCAAG [Fam3.1 aminoacylation ribozyme variant] | 1.19 | 0.938 | 0.827 | 1.04 | 1.25 | 1.37
